Measurements taken from paper PMC11828465.

Target: Vps26A (UniProt O75436)
Assay: BRET titration curves in live cells
Conditions: sites S72

Q: With “Rab7A (from UniProt P51149) NEK7KO HEK293 cells expressing HA–NEK7” as the substance, how does the “other: BRET50” value (reference: NEK7KO HEK293 cells) read?
A: Its value is “stronger; reference 0.0096±0.0039”.

Q: With Rab7A (from UniProt P51149) S72A as the substance, how does the “other: BRET50” value (reference: wild type RlucII–Rab7A) read?
A: Its value is “weaker; reference 0.0026±0.000512”.

Q: With “Rab7A (from UniProt P51149) NEK7KO HEK293 cells” as the substance, how does the “other: BRET50” value (reference: wild-type HEK293 cells) read?
A: The value was “weaker; reference 0.0022±0.0009”.
